Data set [1] concerns the molecule itself. Kind of data set: SEC-MALS; Superdex 200 Increase, 20 mM Na-Hepes pH 7.0, 200 mM NaCl; DNAJC12 3 mg/mL, TH, TH:DNAJC12 complex, TH(1-158) and TH(155-497) 2 mg/mL. On the technique in general: In gel filtration, larger molecules generally elute earlier.
The next data set concerns the target T1, DNAJC12-F193G (human, UniProt Q9UKB3-1 1-198, F193G).
T1 construct: source: E. coli BL21-CodonPlus(DE3)-RIL, purified (HisTrap, TEV cleavage, TALON, amylose, SEC); not shown: His6, N-terminal, cleaved; MBP, N-terminal, cleaved
Kind of data set: BLI; biotinylated TH or TH variant immobilised on streptavidin sensors; DNAJC12 or variant 0.01-4 μM in solution; PBS, 0.02% Tween-20, 0.5 mg/mL BSA, 25 °C; responses fitted to a one-site hyperbola. The conditions noted are these: both partners purified.

As a reminder, the stoichiometry N is a count of units in the complex or per binding partner. One may read the Kd as the constant that tells how readily two partners part at equilibrium. A lower Kd goes with higher affinity.

T1 sequence (Q9UKB3 whole entry F193G): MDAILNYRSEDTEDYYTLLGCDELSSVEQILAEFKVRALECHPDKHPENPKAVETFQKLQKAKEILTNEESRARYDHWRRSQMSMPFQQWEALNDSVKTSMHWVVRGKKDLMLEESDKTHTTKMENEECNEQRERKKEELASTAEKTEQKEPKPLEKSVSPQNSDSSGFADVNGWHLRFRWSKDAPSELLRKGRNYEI

B1: TH catalytic and oligomerization domains, TH(155-497) (domain or fragment)
chain: not shown
modifications: biotinylated with EZ-Link NHS-PEG4-Biotin for BLI only
As for B1, the “stoichiometry N” value in data set [1] was 4.

B2: TH-R202H (TH-p.R202H), variant associated with TH deficiency (enzyme)
chain: not shown
modifications: biotinylated with EZ-Link NHS-PEG4-Biotin for BLI only
For B2, in data set [1], the “stoichiometry N” value turned out to be 4.

B3: TH regulatory domain, TH(1-158) (domain or fragment, human, UniProt P07101-3 1-158, looked up)
chain: MPTPDATTPQAKGFRRAVSELDAKQAEAIMSPRFIGRRQSLIEDARKEREAAVAAAAAAVPSEPGDPLEAVAFEEKEGKAVLNLLFSPRATKPSALSRAVKVFETFEAKIHHLETRPAQRPRAGGPHLEYFVRLEVRRGDLAALLSGVRQVSEDVRSP
modifications: biotinylated with EZ-Link NHS-PEG4-Biotin for BLI only
In the case of B3, in data set [1], the “stoichiometry N” value is 2.

B4: Tyrosine hydroxylase, wild-type (hTH1) (enzyme)
chain: not shown
modifications: biotinylated with EZ-Link NHS-PEG4-Biotin for BLI only
Consider B4, for which the Kd in the data set with DNAJC12-F193G came out at 1180 nM.
